Laboratory results from patent US20180274003.

What was measured:
Peptide 4 YKNGV = target: T1, Peptide 4 YKNGV
T1 chain: YKNGV

Peptide 3 YKNHV = target: T2, Peptide 3 YKNHV
T2 chain: YKNHV

[1] = target: T3, Peptide 1 YKN-thioglc-V (thiodepsipeptide 1)
T3 chain: YKNXV

[2] = target: T4, Peptide 2 YKN-glc-V (depsipeptide 2)
T4 chain: YKNXV

B1: butelase 1 (protein)
chain: VEGTRWAVLVAGSKGYVNYRHQADVCHAYQILKKGGLKDENIIVFMYDDIAYNESNPHPGVIINHPYGSDVYKGVPKDYVGEDINPPNFYAVLLANKSALTGTGSGKVLDSGPNDHVFIYYTDHGGAGVLGMPSKPYIAASDLNDVLKKKHASGTYKSIVFYVESCESGSMFDGLLPEDHNIYVMGASDTGESSWVTYCPLQHPSPPPEYDVCVGDLFSVAWLEDCDVHNLQTETFQQQYEVVKNKTIVALIEDGTHVVQYGDVGLSKQTLFVYMGTDPANDNNTFTDKNSLGTPRKAVSQRDADLIHYWEKYRRAPEGSSRKAEAKKQLREVMAHRMHIDN
- Km (Peptide 4 YKNGV): 880 µM
- kcat (Peptide 4 YKNGV): 7.9 s⁻¹
- kcat/Km (Peptide 4 YKNGV): 8900 M⁻¹ s⁻¹
- Km (Peptide 3 YKNHV): 300 µM
- kcat (Peptide 3 YKNHV): 4.1 s⁻¹
- kcat/Km (Peptide 3 YKNHV): 13500 M⁻¹ s⁻¹
- Km [1]: 2760 µM
- kcat [1]: 56.5 s⁻¹
- kcat/Km [1]: 20500 M⁻¹ s⁻¹
- Km [2]: 740 µM
- kcat [2]: 12.4 s⁻¹
- kcat/Km [2]: 16800 M⁻¹ s⁻¹
